In article PMC8930771, “Structural basis of phosphatidylinositol 3-kinase C2α function” (Nature Structural & Molecular Biology, 2022):

Legend:
[1] = target: T1, PI3KC2α^ΔN+ΔPX−C2 RBD mutant (K426A, W458A, D461A, D462A) (mouse, UniProt Q61194 377-1400, K426A | W458A | D461A | D462A); test: pull-down; 10 μg immobilized GST fusion protein as bait, 200 μg PI3KC2α^ΔN+ΔPX−C2 WT or RBD mutant in 500 μl binding buffer (20 mM Tris, pH 7.5, 100 mM NaCl), 1 h at 4 °C, three washes; SDS-PAGE and Coomassie blue staining, quantified with ImageJ; settings: both partners purified
T1 construct: Phosphatidylinositol 3-kinase type 2α (PI3KC2α), mouse, amino acids 377-1,400, with four alanine substitutions in the RBD; source: Sf21 insect cells (baculovirus), purified (Nickel NTA, TEV cleavage, Superdex 200)
T1 sequence (looked up): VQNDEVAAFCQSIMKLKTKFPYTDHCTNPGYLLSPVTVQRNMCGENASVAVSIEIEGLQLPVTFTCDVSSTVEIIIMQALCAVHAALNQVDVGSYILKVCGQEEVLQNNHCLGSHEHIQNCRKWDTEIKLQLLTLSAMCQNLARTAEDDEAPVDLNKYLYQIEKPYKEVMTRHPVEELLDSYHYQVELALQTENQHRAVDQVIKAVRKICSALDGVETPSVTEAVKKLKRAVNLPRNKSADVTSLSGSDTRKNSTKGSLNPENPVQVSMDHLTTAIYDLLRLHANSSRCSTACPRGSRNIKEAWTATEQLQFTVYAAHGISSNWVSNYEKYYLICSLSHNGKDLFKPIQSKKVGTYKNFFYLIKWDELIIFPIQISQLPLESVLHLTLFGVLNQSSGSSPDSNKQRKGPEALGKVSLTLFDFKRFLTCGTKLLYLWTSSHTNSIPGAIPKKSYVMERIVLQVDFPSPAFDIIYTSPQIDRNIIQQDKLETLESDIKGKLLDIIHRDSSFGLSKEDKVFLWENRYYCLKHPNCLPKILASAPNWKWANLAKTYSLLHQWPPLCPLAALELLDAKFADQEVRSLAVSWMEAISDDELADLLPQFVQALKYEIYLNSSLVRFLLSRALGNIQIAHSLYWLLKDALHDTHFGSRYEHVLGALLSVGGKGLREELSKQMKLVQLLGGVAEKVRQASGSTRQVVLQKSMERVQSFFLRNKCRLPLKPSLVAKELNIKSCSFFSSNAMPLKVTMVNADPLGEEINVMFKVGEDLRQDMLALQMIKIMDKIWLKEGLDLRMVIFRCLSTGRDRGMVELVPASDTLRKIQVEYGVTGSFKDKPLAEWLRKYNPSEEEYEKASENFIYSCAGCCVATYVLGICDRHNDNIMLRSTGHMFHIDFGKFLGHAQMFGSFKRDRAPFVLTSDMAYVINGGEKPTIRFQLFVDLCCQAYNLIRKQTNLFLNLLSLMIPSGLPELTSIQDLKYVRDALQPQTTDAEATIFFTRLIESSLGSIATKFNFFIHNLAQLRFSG

[2] = target: T2, PI3KC2α^ΔN+ΔPX−C2 WT (mouse PI3KC2α amino acids 377–1,400) (mouse, UniProt Q61194 377-1400); test: as above; settings: both partners purified
T2 construct: Phosphatidylinositol 3-kinase type 2α (PI3KC2α), mouse, amino acids 377-1,400; lacks the disordered N-terminal region and the distal PX and C-C2 domains; Cloned into pFL10His; The purification paragraph names PI3KC2α^ΔN, ^ΔN+ΔC−C2, ^core 'and related mutants'; also called PI3KC2α^ΔN+ΔPX−C2 Wild-type (WT); source: Sf21 insect cells (baculovirus), purified (Nickel NTA, TEV cleavage, Superdex 200)
T2 sequence (looked up): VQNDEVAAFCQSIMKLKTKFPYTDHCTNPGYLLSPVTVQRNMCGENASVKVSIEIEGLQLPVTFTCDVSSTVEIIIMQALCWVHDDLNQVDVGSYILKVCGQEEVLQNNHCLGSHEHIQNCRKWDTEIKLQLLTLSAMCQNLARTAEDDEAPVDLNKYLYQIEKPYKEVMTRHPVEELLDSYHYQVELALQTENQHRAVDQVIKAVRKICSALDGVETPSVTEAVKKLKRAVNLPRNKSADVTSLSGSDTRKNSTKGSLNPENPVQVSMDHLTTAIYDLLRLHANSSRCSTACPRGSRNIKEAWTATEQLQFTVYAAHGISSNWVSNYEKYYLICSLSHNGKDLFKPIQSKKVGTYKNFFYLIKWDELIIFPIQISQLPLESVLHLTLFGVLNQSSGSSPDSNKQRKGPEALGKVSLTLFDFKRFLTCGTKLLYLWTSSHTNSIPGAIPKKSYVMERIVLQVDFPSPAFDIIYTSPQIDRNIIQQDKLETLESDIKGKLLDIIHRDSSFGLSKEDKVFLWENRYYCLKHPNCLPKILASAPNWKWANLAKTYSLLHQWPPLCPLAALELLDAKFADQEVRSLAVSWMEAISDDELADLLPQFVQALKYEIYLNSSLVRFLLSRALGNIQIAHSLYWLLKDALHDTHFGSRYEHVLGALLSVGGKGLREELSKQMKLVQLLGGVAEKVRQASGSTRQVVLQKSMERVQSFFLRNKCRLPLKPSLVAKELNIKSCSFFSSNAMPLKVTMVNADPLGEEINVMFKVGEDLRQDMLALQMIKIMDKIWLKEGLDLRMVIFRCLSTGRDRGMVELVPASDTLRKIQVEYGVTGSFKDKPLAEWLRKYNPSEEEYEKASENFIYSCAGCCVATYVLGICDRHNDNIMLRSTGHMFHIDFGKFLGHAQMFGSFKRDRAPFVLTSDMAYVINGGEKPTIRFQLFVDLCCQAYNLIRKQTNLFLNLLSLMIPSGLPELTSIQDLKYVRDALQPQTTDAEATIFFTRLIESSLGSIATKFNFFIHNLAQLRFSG

- binding result [1]: binds
- binding result [2]: binds
B1: GST-distal C2 (PI3KC2α amino acids 1,561–1,686) (domain or fragment, mouse, UniProt Q61194 1561-1686, looked up)
chain: GAVKLSVSYRNGTLFIMVMHIKDLVTEDGADPNPYVKTYLLPDTHKTSKRKTKISRKTRNPTFNEMLVYSGYSKETLRQRELQLSVLSAESLRENFFLGGITLPLKDFNLSKETVKWYQLTAATYL
notes: PI3KC2α, mouse, C-terminal (distal) C2 domain, amino acids 1,561-1,686; also called GST-C2; GST-tagged C2; source: E. coli (pGEX-4T-1), immobilized GST fusion protein
